Target: HIV-1 Env of virus AT1 with the I371V mutation (HIV-1)

Work on VRC01 (antibody) yielded an IC50 of neutralisation of the virus in TZM-bl cells (luciferase reporter) of 0.0724 µg/mL.

Reference: article PMC5524822
